Read-outs that look alike come from different tables or passages of the source. Where no end group is shown, it is not given here.
T1: Peptide-26 (cysteine pairing not given here; also: biotinylated, site not given here)
T1 peptide: DNLICVKNLWCWIA

T2: Peptide-8 (cysteine pairing not given here; also: biotinylated, site not given here)
T2 peptide: VDFCGLYHWPICYQ

T3: Peptide-14 (cysteine pairing not given here; also: biotinylated (site not given here))
T3 peptide: LDFCKIYDWPICHL

T4: Peptide-5 (cysteine pairing not given here; also: biotinylated, site not given here)
T4 peptide: VDFCKLYNWPVCQT

T5: Peptide-4 (cysteine pairing not given here; also: biotinylated, site not given here)
T5 peptide: VDFCKIYAWPICGS

T6: Peptide-20 (cysteine pairing not given here; also: biotinylated (site not given here))
T6 peptide: VDFCSFYRWPICET

T7: Peptide-25 (cysteine pairing not given here; also: biotinylated (site not given here))
T7 peptide: VDFCKIYSWPVCHQ

T8: Peptide-31 (cysteine pairing not given here; also: biotinylated, site not given here)
T8 peptide: YSLVCVKNLYCWNL

T9: Peptide-12 (cysteine pairing not given here; also: biotinylated (site not given here))
T9 peptide: PDFCAVYRWPICYQ

T10: Peptide-18 (cysteine pairing not given here; also: biotinylated (site not given here))
T10 peptide: MDFCQIYDWPICRL

T11: Peptide-29 (cysteine pairing not given here; also: biotinylated, site not given here)
T11 peptide: SYLVCVKNVYCWTA

T12: Peptide-27 (cysteine pairing not given here; also: biotinylated, site not given here)
T12 peptide: FSLVCVRNLYCWNV

T13: Peptide-13 (cysteine pairing not given here; also: biotinylated (site not given here))
T13 peptide: VDFCELYRWPICNS

T14: Peptide-10 (cysteine pairing not given here; also: biotinylated (site not given here))
T14 peptide: IDFCAIYQWPVCRS

T15: Peptide-3 (cysteine pairing not given here; also: biotinylated, site not given here)
T15 peptide: IDFCMLYNWPICAG

T16: Peptide-7 (cysteine pairing not given here; also: biotinylated, site not given here)
T16 peptide: EDFCKLYNWPICYQ

T17: Peptide-6 (cysteine pairing not given here; also: biotinylated, site not given here)
T17 peptide: IDFCLIYNWPVCDT

T18: Peptide-2 (cysteine pairing not given here; also: biotinylated (site not given here))
T18 peptide: IDFCAVYKWPVCQV

T19: Peptide-1 (cysteine pairing not given here; also: biotinylated (site not given here))
T19 peptide: IDFCAMYQWPICDT

T20: Peptide-17 (cysteine pairing not given here; also: biotinylated (site not given here))
T20 peptide: IDFCLLYDWPICGR

T21: Peptide-32 (cysteine pairing not given here; also: biotinylated, site not given here)
T21 peptide: PDFCYMYGWPICDS

T22: Peptide-37 (cysteine pairing not given here; also: biotinylated, site not given here)
T22 peptide: VDFCYLYNWPVCSK

T23: Peptide-39 (cysteine pairing not given here; also: biotinylated, site not given here)
T23 peptide: VDFCGLYHWPICYQVD

T24: Peptide-64 (cysteine pairing not given here; also: biotinylated, site not given here)
T24 peptide: PDFCAVYRWPICYQ

T25: Peptide-46 (cysteine pairing not given here; also: biotinylated, site not given here)
T25 peptide: VEFCAIYSWPICKI

T26: Peptide-52 (cysteine pairing not given here; also: biotinylated, site not given here)
T26 peptide: VDFCYQYAWPVCSTGD

T27: Peptide-28 (cysteine pairing not given here; also: biotinylated, site not given here)
T27 peptide: NYLLCVKNLYCWIV

T28: Peptide-24 (cysteine pairing not given here; also: biotinylated (site not given here))
T28 peptide: SVLFCVKNLYCWVT

T29: Human TROP2 ECD (31-274 AA), biotinylated (human, UniProt P09758 31-274, biotinylated (site not stated))
T29 construct: captured on neutravidin plates; also called TROP2-biotin; Trop2-biotin
T29 sequence: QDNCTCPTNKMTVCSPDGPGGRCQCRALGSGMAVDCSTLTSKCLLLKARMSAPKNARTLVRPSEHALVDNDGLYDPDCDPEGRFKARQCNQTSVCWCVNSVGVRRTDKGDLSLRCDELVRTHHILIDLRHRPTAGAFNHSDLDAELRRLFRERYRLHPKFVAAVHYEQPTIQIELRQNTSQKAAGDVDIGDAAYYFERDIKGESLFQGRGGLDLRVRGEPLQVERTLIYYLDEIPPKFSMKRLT


Legend:
Peptide-26 = biological target: T1, Peptide-26; assay: ELISA, Fab on captured biotin-peptide
Experimental: (§1) Binding was measured in a standard ELISA format. […] Bound TBDs were detected using a standard horse radish peroxidase conjugate secondary antibody. The ELISA signal was plotted versus the log-scale concentration of TBD. The concentrations of TBD required to observe half maximal binding signal (EC₅₀s) were calculated using Graphpad Prism software.

Peptide-8 = biological target: T2, Peptide-8; assay: ELISA, Fab on captured biotin-peptide
Experimental: as §1

Peptide-14 = biological target: T3, Peptide-14; assay: ELISA, Fab on captured biotin-peptide
Experimental: as §1

Peptide-5 = biological target: T4, Peptide-5; assay: ELISA, Fab on captured biotin-peptide
Experimental: as §1

Peptide-4 = biological target: T5, Peptide-4; assay: ELISA, Fab on captured biotin-peptide
Experimental: as §1

Peptide-20 = biological target: T6, Peptide-20; assay: ELISA, Fab on captured biotin-peptide
Experimental: as §1

Peptide-25 [1] = biological target: T7, Peptide-25; assay: ELISA, Fab on captured biotin-peptide
Experimental: as §1

Peptide-31 = biological target: T8, Peptide-31; assay: ELISA, Fab on captured biotin-peptide
Experimental: as §1

Peptide-12 = biological target: T9, Peptide-12; assay: ELISA, Fab on captured biotin-peptide
Experimental: as §1

Peptide-18 = biological target: T10, Peptide-18; assay: ELISA, Fab on captured biotin-peptide
Experimental: as §1

Peptide-29 = biological target: T11, Peptide-29; assay: ELISA, Fab on captured biotin-peptide
Experimental: as §1

Peptide-27 = biological target: T12, Peptide-27; assay: ELISA, Fab on captured biotin-peptide
Experimental: as §1

Peptide-13 = biological target: T13, Peptide-13; assay: ELISA, Fab on captured biotin-peptide
Experimental: as §1

Peptide-10 = biological target: T14, Peptide-10; assay: ELISA, Fab on captured biotin-peptide
Experimental: as §1

Peptide-3 = biological target: T15, Peptide-3; assay: ELISA, Fab on captured biotin-peptide
Experimental: as §1

Peptide-7 = biological target: T16, Peptide-7; assay: ELISA, Fab on captured biotin-peptide
Experimental: as §1

Peptide-6 = biological target: T17, Peptide-6; assay: ELISA, Fab on captured biotin-peptide
Experimental: as §1

Peptide-2 = biological target: T18, Peptide-2; assay: ELISA, Fab on captured biotin-peptide
Experimental: as §1

Peptide-1 = biological target: T19, Peptide-1; assay: ELISA, Fab on captured biotin-peptide
Experimental: as §1

Peptide-17 = biological target: T20, Peptide-17; assay: ELISA, Fab on captured biotin-peptide
Experimental: as §1

Peptide-32 = biological target: T21, Peptide-32; assay: ELISA, Fab on captured biotin-peptide
Experimental: as §1

Peptide-25 [2] = biological target: T7, Peptide-25; assay: ELISA, Fab on captured biotin-peptide
Experimental: as §1

Peptide-37 = biological target: T22, Peptide-37; assay: ELISA, Fab on captured biotin-peptide
Experimental: as §1

Peptide-39 = biological target: T23, Peptide-39; assay: ELISA, Fab on captured biotin-peptide
Experimental: as §1

Peptide-64 = biological target: T24, Peptide-64; assay: ELISA, Fab on captured biotin-peptide
Experimental: as §1

Peptide-46 = biological target: T25, Peptide-46; assay: ELISA, Fab on captured biotin-peptide
Experimental: as §1

Peptide-52 = biological target: T26, Peptide-52; assay: ELISA, Fab on captured biotin-peptide
Experimental: as §1

Peptide-28 = biological target: T27, Peptide-28; assay: ELISA, Fab on captured biotin-peptide
Experimental: as §1

Peptide-24 = biological target: T28, Peptide-24; assay: ELISA, Fab on captured biotin-peptide
Experimental: as §1

[3] = biological target: T29, Human TROP2 ECD (31-274 AA), …; assay: ELISA, Fab on captured biotin-TROP2

| Binder | EC50 (Peptide-26) [nM] | EC50 (Peptide-8) [nM] | EC50 (Peptide-14) [nM] | EC50 (Peptide-5) [nM] | EC50 (Peptide-4) [nM] | EC50 (Peptide-25 [1]) [nM] | EC50 (Peptide-12) [nM] | EC50 (Peptide-18) [nM] | EC50 (Peptide-13) [nM] | EC50 (Peptide-10) [nM] | EC50 (Peptide-3) [nM] | EC50 (Peptide-7) [nM] | EC50 (Peptide-6) [nM] | EC50 (Peptide-2) [nM] | EC50 (Peptide-1) [nM] | EC50 (Peptide-17) [nM] | EC50 (Peptide-32) [nM] | EC50 (Peptide-37) [nM] | EC50 (Peptide-39) [nM] | EC50 (Peptide-64) [nM] | other results |
| --- | --- | --- | --- | --- | --- | --- | --- | --- | --- | --- | --- | --- | --- | --- | --- | --- | --- | --- | --- | --- | --- |
| TBD-1 wt (Fab, V domains shown, Fab; the heavy chain entry is VH-CH1; also called wild-type anti-TROP2 Fab (hRS7); TROP2 Fab) VH: QVQLQQSGSELKKPGASVKVSCKASGYTFTNYGMNWVKQAPGQGLKWMGWINTYTGEPTYTDDFKGRFAFSLDTSVSTAYLQISSLKADDTAVYFCARGGFGSSYWYFDVWGQGSLVTVSS VL: DIQLTQSPSSLSASVGDRVSITCKASQDVSIAVAWYQQKPGKAPKLLIYSASYRYTGVPDRFSGSGSGTDFTLTISSLQPEDFAVYYCQQHYITPLTFGAGTKVEIKR | 85 | 40.2 | 379 | 16.5 | 9.2 | 48.2 | 35.9 | 474 | 157 | 62.6 | 12.8 | 37.5 | 28.5 | 13.7 | 22.5 | 132 | 34.6 | 31.7 | 95.2 | 28.3 | EC50 (Peptide-20): 600 nM; EC50 (Peptide-31): 42.1 nM; EC50 (Peptide-29): 6.7 nM; EC50 (Peptide-27): 23.9 nM; EC50 (Peptide-25 [2]): 217 nM; EC50 (Peptide-46): 668 nM; EC50 (Peptide-52): 127 nM |
| TBD-21 (HC F108A) (Fab, V domains shown, Fab; also called HC F108A mutant) VH: QVQLQQSGSELKKPGASVKVSCKASGYTFTNYGMNWVKQAPGQGLKWMGWINTYTGEPTYTDDFKGRFAFSLDTSVSTAYLQISSLKADDTAVYFCARGGFGSSYWYADVWGQGSLVTVSS VL: DIQLTQSPSSLSASVGDRVSITCKASQDVSIAVAWYQQKPGKAPKLLIYSASYRYTGVPDRFSGSGSGTDFTLTISSLQPEDFAVYYCQQHYITPLTFGAGTKVEIKR | 390 | 13 | 53.3 | 15.6 | 12.7 | 48.4 | 10.1 | 38 | 22.6 | 15.2 | 12.3 | 27.4 | 24.9 | 12.9 | 13.5 | 16.4 | 27.1 | 27.3 | 32.7 | 11 | EC50 (Peptide-28): 146 nM; EC50 (Peptide-20): 89 nM; EC50 (Peptide-24): 142 nM; EC50 (Peptide-29): 23.4 nM; EC50 (Peptide-27): 149 nM; EC50 (Peptide-25 [2]): 42.3 nM; EC50 [3]: 4.2 nM |
| TBD-11 (HC R98A) (Fab, V domains shown, Fab; also called HC R98A mutant) VH: QVQLQQSGSELKKPGASVKVSCKASGYTFTNYGMNWVKQAPGQGLKWMGWINTYTGEPTYTDDFKGRFAFSLDTSVSTAYLQISSLKADDTAVYFCAAGGFGSSYWYFDVWGQGSLVTVSS VL: DIQLTQSPSSLSASVGDRVSITCKASQDVSIAVAWYQQKPGKAPKLLIYSASYRYTGVPDRFSGSGSGTDFTLTISSLQPEDFAVYYCQQHYITPLTFGAGTKVEIKR |  | 156 | 332 | 232 | 179 | > 1000 | 157 | 298 | 388 | 272 | 246 | 343 | 363 | 204 | 292 | 191 | 87.7 | 149 | 151 | 61.7 | EC50 [3]: 3.4 nM |
| TBD-17 (HC S104A) (Fab, V domains shown, Fab; also called HC S104A mutant) VH: QVQLQQSGSELKKPGASVKVSCKASGYTFTNYGMNWVKQAPGQGLKWMGWINTYTGEPTYTDDFKGRFAFSLDTSVSTAYLQISSLKADDTAVYFCARGGFGSAYWYFDVWGQGSLVTVSS VL: DIQLTQSPSSLSASVGDRVSITCKASQDVSIAVAWYQQKPGKAPKLLIYSASYRYTGVPDRFSGSGSGTDFTLTISSLQPEDFAVYYCQQHYITPLTFGAGTKVEIKR | 379 | 8.2 | 71 | 5.4 | 6.5 | 38.8 | 6.8 | 36.7 | 10 | 6.5 | 6.4 | 15.6 | 10.1 | 5.7 | 7.3 | 8.5 | 35.1 | 19.5 | 16.4 | 3.8 | EC50 (Peptide-28): 247 nM; EC50 (Peptide-20): 115 nM; EC50 (Peptide-31): 164 nM; EC50 (Peptide-24): 133 nM; EC50 (Peptide-29): 24.8 nM; EC50 (Peptide-27): 107 nM; EC50 (Peptide-25 [2]): 35 nM; EC50 [3]: 0.3 nM |

From patent US20230357429A1 (JANUX THERAPEUTICS, published 2023)
